From US6900299 (UNIVERSITY OF SOUTH FLORIDA, dated 2005)

Legend:
[1] = biological target: human ICAM-1 on cells (HEp-2, NHBE, A549, U937) (human) (UniProt P05362); assay: cell-based or functional assay
[2] = biological target: T1, human ICAM-1 fused to the VP16 activation domain (pVP16 vector) (herpes simplex virus; human, UniProt P05362 28-532); assay: mammalian two-hybrid assay in NIH3T3 cells, CAT reporter (CAT activity similar to the basal level)
T1 construct: Order of the parts follows the usual pVP16 layout; also called ICAM-1 (two-hybrid construct)
T1 sequence (P05362 28-532 limits assumed): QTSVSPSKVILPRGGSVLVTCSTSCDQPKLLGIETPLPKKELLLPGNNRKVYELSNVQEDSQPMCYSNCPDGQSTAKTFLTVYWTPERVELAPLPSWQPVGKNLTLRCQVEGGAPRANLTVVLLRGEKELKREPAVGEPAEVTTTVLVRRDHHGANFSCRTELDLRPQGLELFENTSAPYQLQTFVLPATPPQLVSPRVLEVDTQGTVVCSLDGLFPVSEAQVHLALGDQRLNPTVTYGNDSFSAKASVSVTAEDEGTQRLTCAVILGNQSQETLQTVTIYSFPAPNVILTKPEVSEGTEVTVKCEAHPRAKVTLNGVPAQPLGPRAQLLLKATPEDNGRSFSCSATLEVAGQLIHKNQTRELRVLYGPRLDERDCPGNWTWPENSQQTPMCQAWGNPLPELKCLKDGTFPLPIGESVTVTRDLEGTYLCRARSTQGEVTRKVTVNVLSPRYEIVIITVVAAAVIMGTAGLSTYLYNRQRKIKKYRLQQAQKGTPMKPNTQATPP

Sequence of human ICAM-1 on cells (HEp-2, NHBE, A549, U937) (human) (P05362 28-532): as the sequence (P05362 28-532 limits assumed) above

mouse anti-human ICAM-1 mAb (BBA 4) (R & D Systems) (antibody)
inhibition of RSV N gene mRNA in HEp-2 cells (RT-PCR) at 400 µg of mAb/ml [1]: 70% | inhibition of RSV infection of HEp-2 cells (immunofluorescence, percent infected cells) at 400 µg/ml [1]: 96% | reduction in RSV infection of A549 cells at 400 µg of mAb/ml [1]: 67% | reduction in RSV infection of NHBE cells at 400 µg of mAb/ml [1]: 54%

B1: RSV-G fused to the GAL4 DNA-binding domain (pM vector) (other)
chain: MKLLSSIEQACDICRLKKLKCSKEKPKCAKCLKNNWECRYSPKTKRSPLTRAHLTEVESRLERLEQLFLLIFPREDLDMILKMDSLQDIKALLTGLFVQDNVNKDAVTDRLASVETDMPLTLRQHRISATSSSEESSNKGQRQLTVSMSKNKDQRTAKTLERTWDTLNHLLFISSCLYKLNLKSVAQITLSILAMIISTSLIIAAIIFIASANHKVTPTTAIIQDATSQIKNTTPTYLTQNPQLGISPSNPSEITSQITTILASTTPGVKSTLQSTTVKTKNTTTTQTQPSKPTTKQRQNKPPSKPNNDFHFEVFNFVPCSICSNNPTCWAICKRIPNKKPGKKTTTKPTKKPTLKTTKKDPKPQTTKSKEVPTTKPTEEPTINTTKTNIITTLLTSNTTGNPELTSQMETFHSTSSEGNPSPSQVSTTSEYPSQPSSPPNTPRQ
notes: also called cDNA construct expressing G; RSV-G gene product
binding result [2]: no binding
